The text below walks through data of patent publication US20250084398A1, “SYSTEMS FOR MODULATING DRUG METABOLISM BY CELLS, METHODS AND COMPOSITIONS THEREOF” (priority 2021, published 2025).

Residue numbers refer to the chain shown, from its start. Numbers in names are those of the source.

The conditions of data set [1]: mice, cited from earlier work.
Data set [2] relates to GUS enzyme. To be noted: induced with 1 mM PNPG; cited from earlier work.
Another data set has as its system HL29 (ATCC HTB-38) cells. Kind of data set: Viability of human colorectal adenocarcinoma cells incubated 48 hr with SN38G-treated bacterial lysates (XTT viability assay). In kind it is cell-based. The method, then:
Two BW25113 bacterial cultures were used: Vector bacteria expressing empty vector, and K125A bacteria containing the DOIN vector expressing GusR mutant repressor K125A. The cultures were incubated with PNPG to induce the GUS operon and were then incubated with the indicated SN-38G (SantaCruz, 212931A) concentrations, followed by lysis of the bacteria. HL29 (ATCC® HTB-38™) cells were maintained according to the manufacture instructions and incubated for 48 hr with the different bacterial extractions. The viability of the cells, incubated with the bacterial lysates, were determined using the XTT viability assay, in three independent biological repeats using four replicates.
GusR mutant K125A reduces the cytotoxicity of SN38 by inhibiting the metabolism of SN38G by the bacterial GUS, in an enzyme concentration-dependent manner. The study was performed as described in FIGURE, with the following modifications: The cultures were incubated with PNPG to induce the GUS operon, diluted as indicated, followed by incubation with 1 μM of SN-38G, and subsequently, lysis of the bacteria. The viability of the cells was determined as above.
Bacteria (WT and GUS-inhibitor producing bacteria) are grown and induced using PNPG as described above. Following induction, the bacteria are lysed, and extracts are incubated with SN-38G or PNPG. At the end of the incubation period, the PNPG-incubated bacterial extracts are taken to determine the activity of the GUS. In parallel, the SN-38G-incubated bacterial extracts are added to HT29 cell culture to determine cytotoxicity and CC50.
The rate of SN38G conversion to SN38 by the bacterial GUS in the samples is dependent on the reaction conditions (e.g., GUS enzyme activity, substrate concentration etc.), thus the resulting samples contained different concentrations of SN38. The samples were then incubated with HL29, human colorectal adenocarcinoma cell-line, and the viability of the cells was determined. Different concentrations of SN38G and bacteria were examined to evaluate their effect on the cytotoxicity of SN38. […]
In general terms: Formazan colour is commonly taken as a measure of viable cells.

Data set [3] deals with GUS enzyme. Kind of data set: GUS assay: GUS specific activity in bacterial cultures, PNPG substrate, absorbance at 410 nm. Type of data set: cell-based, E. coli. The method, then: The GUS activity is performed as previously described elsewhere, including all required assay controls. Briefly, bacterial cultures grow to reach OD600 of 0.6. Once reached the targeted growth phase, the culture is transduced with the GusR_K125A-expressing vector. One hour later, the bacterial cultures are added to the assay reaction, along with the substrate (PNPG) and the assay buffer. The assay reaction is incubated at 37° C. for 6 hours and the activity of the GUS operon is monitored by the presence of the hydrolysis product (PNP) by measuring the absorbance at 410 nm. The arbitrary units of the GUS operon specific activity are calculated as follows: […]
Inhibition of the GUS activity using the GusR_K125A mutant was next evaluated by the inventors. More specifically, two E. coli bacterial hosts were used: BW25113 and MG1655. A plasmid that expresses the mutant repressor K125A was introduced into each of these hosts (BW25113 K125A and MG1655 K125A). The activity of the GUS operon was determined in the absence (−) or presence (+) of the GUS operon inducer PNPG. The specific units were calculated as described above. As shown by FIG. 4, GUS activity is inhibited in the presence of the dominant negative mutant repressor K125A in two bacterial hosts.

In data set [4] the test system is E. coli K-12 BW25113 and E. coli K12 MG1655. Nature of the data set: TFU assay: transduction efficiency of phage-based particles into bacterial hosts. Type of data set: cell-based. The settings on record: 1 hr incubation with lysate. The method, then: FIG. 6. Transduction of the modulatory component into different microbiome isolates Transductions (TFU/ml) of the DOIN vector into microbiome isolates was determined using the TFU assay, as described previously. Test bacteria culture (MG1655 (grey bars), BW25113 (white bars)) was grown to reach mid-exponential growth phase and incubated for 1 hr with a lysate of transducing particles (modified bacteriophages) containing the DOIN vector expressing GusR K125A_CRISPR, used as the modulatory component. Ten-fold serial dilutions were plated in duplicates on selective plates, which only bacteria that were transduced were able to grow on. Dashed grey horizontal line indicates the assay limit of detection. Data represent at least two independent experiments.
The lysate titer is determined using the transducing forming units (TFU) assay as previously described elsewhere.
The produced lysates are used to transduce each of the abovementioned bacterial hosts, and the transduction efficiencies for each strain is determined by the TFU assay.
More specifically, phage-based particle lysate was prepared as described above. The transduction efficiency of the particles against the indicated bacterial host above was determined using the TFU assay, as described previously, and presented in Table 2. The tail used for transduction is TC1 (TC1 as denoted by SEQ ID NO: 4).

The conditions of data set [5]: replacement of carboxylate-contacting residue; cited from earlier work.

For `CCc1c2c(nc3ccc(O)cc13)-c1cc3c(c(=O)n1C2)COC(=O)[C@]3(O)CC` [SN38], the “time to peak concentration of SN38” value in data set [1] (after administration of Irinotecan 80 mg/kg) is 2 h. Also, the “peak concentration of SN38” value in data set [1] (intestine, Irinotecan 80 mg/kg) is on record as “around 1 μg/gr tissue weight”.

B1: K125A GusR (protein)
chain: MMDNMQTEAQPTRTRILNAAREIFSENGFHSASMKAICKSCAISPGTLYHHFISKEALIQAIILQDQERALARFREPIEGIHFVDYMVESIVSLTHEAFGQRALVVEIMAEGMRNPQVAAMLKNAHMTITEFVAQRMRDAQQKGEISPDINTAMTSRLLLDLTYGVLADIEAEDLAREASFAQGLRAMIGGILTAS
As to B1, the “GUS activity of bacterial cells containing an expression plasmid” value in the data set on GUS enzyme [2] is recorded as “no GUS activity”. The “rescue of cells from the toxic effect of SN38 (FIG. 9)” value in the data set on HL29 (ATCC HTB-38) cells (SN38G 0.1 μM, BW25113 bacteria) is “completely rescued”. Besides, the “cells rescued (viability, FIG. 9)” value in the data set with HL29 (ATCC HTB-38) cells (SN38G 1 μM, BW25113 bacteria, un-diluted) is 60%. Further, in the data set with HL29 (ATCC HTB-38) cells (SN38G 1 μM, bacteria 6-fold diluted), the “cells rescued from SN38 toxicity (FIG. 10)” value is roughly 100%. Further, the “GUS specific activity lower than in empty vector-expressing bacteria” value in the data set with GUS enzyme [3] (samples of the cytotoxicity study (BW25113)) is on record as “around 10 fold”. For the same molecule, in the data set on GUS enzyme [3] (two bacterial hosts, BW25113 and MG1655, absence or presence of PNPG), the “GUS activity (specific activity, FIG. 4)” value is given as “inhibited”. Also, the “Transduction into microbiome isolates (FIG. 6)” value in data set [4] was “successful transduction”. In data set [5], the “affinity to the GUS ligand” value is on record as “significantly lower affinity”.

B2: Y164F GusR (protein)
chain: B1 chain with A125K, Y164F
As for B2, the results for the “reduction of GUS activity (FIG. 7)” value in the data set with GUS enzyme [3] (BW25113 bacteria) and in the data set on GUS enzyme [3] (MG1655 bacteria) were 34 fold and roughly 1.5 fold, respectively.
